This series has as its target POT1C;TPP1(PBD) (Homo sapiens;Homo sapiens, UniProt Q9NUX5;Q96AP0 330-634;169-251, |). Kind of series: fluorescence polarization; up to 5 uM protein; FP: 20 mM Hepes pH 7.5, 100 mM KCl, 2 mM MgCl2, 1 mM EDTA, 2 mM DTT, 1 mg/ml BSA, 5% glycerol, 75 nM polyT50 competitor, 2.5 nM probe, room temperature 30 min. The note with it: protein: recombinant;recombinant; tags: N-terminal His6-pMocr, TEV-cleaved;N-terminal His6, TEV-cleaved; copies: 1;1; label: 5' 6-FAM; single strand. A general note: Fluorescence polarisation rises when a labelled molecule tumbles more slowly, as on binding a larger partner.

The source of these data is paper PMC5394233, “Structural and functional analysis of the human POT1-TPP1 telomeric complex” (Nature Communications, 2017).

Sequence of POT1C;TPP1(PBD) (Q96AP0 169-251, one chain of several): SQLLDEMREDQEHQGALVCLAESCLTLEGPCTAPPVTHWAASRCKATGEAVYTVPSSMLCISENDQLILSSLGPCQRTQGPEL

Turning to TTAGGGTTAGGGTTAGGG (ssDNA) [telomeric 18mer (TTAGGG)3], the binding result is given as “no binding”.
